PMC9546773, “Prediction of protein–ligand binding affinity from sequencing data with interpretable machine learning”

Biological target: Dll (DllΔN) (Drosophila melanogaster, UniProt P20009 124-327)
Assay: EMSA; 1:1 mix of dialysis buffer (20 mM HEPES pH 8.0, 200 mM NaCl, 10% glycerol, 2 mM MgCl2, 0.05% Tween 20) and DNA mix; final about 150 mM NaCl, 10 mM Tris pH 7.5
Settings: tags: His6 (kept); label: Cy5 on the primer strand

Sequence of Dll (DllΔN) (P20009 124-327, stated change not applied): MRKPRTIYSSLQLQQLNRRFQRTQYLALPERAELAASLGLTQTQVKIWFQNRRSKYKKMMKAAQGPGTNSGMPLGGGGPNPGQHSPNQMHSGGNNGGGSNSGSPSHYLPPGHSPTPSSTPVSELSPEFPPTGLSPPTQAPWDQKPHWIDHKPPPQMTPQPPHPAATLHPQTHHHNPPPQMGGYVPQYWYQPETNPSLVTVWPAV

Binder | Kd [nM]
probe 1 (dsDNA) DNA 1: GTTCAGAGTTCTACAGTCCGACCTGGTTTAATTGGTCCAGGACTCGGACCTGGACTAGG DNA 2: CCTAGTCCAGGTCCGAGTCCTGGACCAATTAAACCAGGTCGGACTGTAGAACTCTGAAC | 5.2
probe 2 (dsDNA) DNA 1: GTTCAGAGTTCTACAGTCCGACCTGGTTTGATTGGTCCAGGACTCGGACCTGGACTAGG DNA 2: CCTAGTCCAGGTCCGAGTCCTGGACCAATCAAACCAGGTCGGACTGTAGAACTCTGAAC | 92.7
probe 4 (dsDNA) DNA 1: GTTCAGAGTTCTACAGTCCGACCTGGTTTAATGGGTCCAGGACTCGGACCTGGACTAGG DNA 2: CCTAGTCCAGGTCCGAGTCCTGGACCCATTAAACCAGGTCGGACTGTAGAACTCTGAAC | 40.8
probe 3 (dsDNA) DNA 1: GTTCAGAGTTCTACAGTCCGACCTGGTTTATTTGGTCCAGGACTCGGACCTGGACTAGG DNA 2: CCTAGTCCAGGTCCGAGTCCTGGACCAAATAAACCAGGTCGGACTGTAGAACTCTGAAC | ~2640
